Results reported in paper PMC6978347.

B1: AtNBR1^1–94 (AtNBR1–PB1) [Arabidopsis thaliana] / MBP-tagged wild-type AtNBR1–PB1^1–94 [Arabidopsis thaliana] (parent)
chain 1: MESTANALVVKVSYGGVLRRFRVPVKANGQLDLEMAGLKEKIAALFNLSADAELSLTYSDEDGDVVALVDDNDLFDVTNQRLKFLKINVNAGVS
chain 2: B1 chain 1

Variants of: B1
Assay: pull-down (MBP pulldown, band quantification)
Settings: with MBP-tagged wild-type AtNBR1–PB1^1–94 [Arabidopsis thaliana];; read off a plot

| Variant | ratio to parent |
| --- | --- |
| chain 1 D60A D62A | 0.06 |
| chain 1 D64A | 0.27 |
| chain 1 E61A | 0.22 |
| chain 1 K11A | 0.32 |
| chain 1 K11A D60A | 0.04 |
| chain 1 R19A R20A | 0.01 |
